The values that follow come from US20060211075A1, “Enzyme sensors including environmentally sensitive or fluorescent labels and uses thereof” (The Albert Einstein College of Medicine of Yeshiva …, priority 2005, published 2006).

Starred links: 1 amine or outer side, 2 acyl side, 3 side chain; linkers in the order of their positions; H or OH if unused. Non-standard residues stand in square brackets, D forms with d. pY = N[C@@H](Cc1ccc(OP(=O)(O)O)cc1)C(=O)O; Cysteamide = C(CS[*:3])N[*:1]; Dap = NC[C@H](N)C(=O)O

In the test the target is GST-Lck-SH2 (UniProt P06239). The test can be described thus: fluorescence change on Src-catalysed phosphorylation in presence of GST-Lck-SH2 (1.25 µM peptide, 5 µM Lck-SH2, 12 nM Src, 1 mM ATP).
Sequence of GST-Lck-SH2 (P06239 127-224): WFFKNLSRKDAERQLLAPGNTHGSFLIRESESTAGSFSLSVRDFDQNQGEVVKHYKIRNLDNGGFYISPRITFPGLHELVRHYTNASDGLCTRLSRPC

For the molecule Ac-EEEI[pY][Dap](dapoxyl)EIEA-Cysteamide (not fully specified), the Fold change in fluorescence intensity is 0.6 fold.
